According to publication PMC10899400, “2′-19F labelling of ribose in RNAs: a tool to analyse RNA/protein interactions by NMR in physiological conditions”:

Target: Sam68 QUA1-KH (UniProt Q07666 96-260)
Experiment: EMSA; 40 uM RNA, 10-200 uM protein; NMR buffer 20 mM NaHPO4 pH 6.5, 100 mM NaCl, 1 mM beta-mercaptoethanol, 50 mM L-Arg, 50 mM L-Glu; 19F NMR of free RNA at 303 K, with or without 40% HeLa nuclear extract; EMSA 14% PAGE in TBE pH 7.6, 4 C
Settings: protein: recombinant; tags: N-terminal His6-TEV (pLEICS-01), TEV-treated; chain copies: 2; single-stranded

Chain of Sam68 QUA1-KH (Q07666 96-260): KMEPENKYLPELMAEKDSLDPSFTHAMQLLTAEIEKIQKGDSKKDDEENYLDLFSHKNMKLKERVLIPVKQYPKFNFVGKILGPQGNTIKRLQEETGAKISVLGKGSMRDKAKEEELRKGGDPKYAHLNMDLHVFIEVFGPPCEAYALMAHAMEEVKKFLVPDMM

B1: unmodified RNA (SMN2 21-mer) (ssRNA)
RNA: UUACAGGGUUUUAGACAAAAU
- binding result: binds
